Assay results: patent US6294648A, “Protein having proteinase inhibitor activity” (Bayer Corporation, priority 1999, dated 2001)
Entries after “also recorded” stand apart in the source; their conditions may differ. Like-named read-outs stand apart in the source and are kept apart here.

Columns and labels:
leukocyte elastase = target: T1, leukocyte elastase (Homo sapiens, UniProt P08246); conditions: cited from earlier work
T1 sequence (P08246 30-267): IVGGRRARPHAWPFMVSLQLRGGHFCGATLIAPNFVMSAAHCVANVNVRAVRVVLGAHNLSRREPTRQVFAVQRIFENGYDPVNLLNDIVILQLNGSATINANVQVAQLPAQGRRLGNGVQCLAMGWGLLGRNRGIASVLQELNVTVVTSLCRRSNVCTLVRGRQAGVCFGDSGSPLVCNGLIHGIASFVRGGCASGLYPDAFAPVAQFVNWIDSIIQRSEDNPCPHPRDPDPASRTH

chymotrypsin = conditions: cited from earlier work; for Ki: read-out: Ki, chymotrypsin
trypsin [1] = target: T2, trypsin (Bos taurus, UniProt P00760); conditions: cited from earlier work
T2 construct: gene PRSS1
T2 sequence (P00760 24-246): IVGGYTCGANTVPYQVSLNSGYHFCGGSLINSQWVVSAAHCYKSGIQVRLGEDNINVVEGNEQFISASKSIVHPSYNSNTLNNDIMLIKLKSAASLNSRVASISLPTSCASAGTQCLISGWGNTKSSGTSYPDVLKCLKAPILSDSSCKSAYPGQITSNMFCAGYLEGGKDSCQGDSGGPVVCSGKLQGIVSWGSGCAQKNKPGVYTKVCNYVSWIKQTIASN

cathepsin G = target: T3, cathepsin G (Homo sapiens, UniProt P08311); conditions: cited from earlier work
T3 sequence (P08311 21-255): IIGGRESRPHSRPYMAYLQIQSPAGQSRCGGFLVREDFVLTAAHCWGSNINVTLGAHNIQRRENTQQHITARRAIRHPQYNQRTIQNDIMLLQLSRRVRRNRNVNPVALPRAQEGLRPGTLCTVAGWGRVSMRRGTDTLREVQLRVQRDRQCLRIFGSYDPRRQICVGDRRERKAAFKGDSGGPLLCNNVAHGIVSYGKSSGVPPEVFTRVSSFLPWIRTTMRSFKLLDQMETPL

platelets = conditions: cited from earlier work
proteinase 3 = target: T4, proteinase 3 (Homo sapiens, UniProt P24158); conditions: cited from earlier work
T4 sequence (P24158 28-256): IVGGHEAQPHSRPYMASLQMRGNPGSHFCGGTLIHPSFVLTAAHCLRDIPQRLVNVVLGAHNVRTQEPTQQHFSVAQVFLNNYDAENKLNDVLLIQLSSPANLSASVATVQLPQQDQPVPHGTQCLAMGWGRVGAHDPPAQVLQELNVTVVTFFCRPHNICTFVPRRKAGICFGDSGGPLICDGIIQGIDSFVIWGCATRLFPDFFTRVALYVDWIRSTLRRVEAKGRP

thrombin = thrombin (Homo sapiens, UniProt P00734); conditions: cited from earlier work
[2] = test system: neutrophil-induced ECM solubilization; conditions: cited from earlier work
[3] = target: T5, human neutrophil cathepsin G (Homo sapiens, UniProt P08311); assay: Determination of equilibrium dissociation constants, cathepsin G; type: biochemical
T5 construct: purchased Athens Research and Technology, Inc. (Athens, Ga.)
T5 sequence (P08311 21-255): T3 sequence (P08311 21-255)
Experimental: (§1) The BTL.009 concentration was determined by amino acid analysis. The concentration of human neutrophil elastase, cathepsin G, and proteinase 3 were based on the manufacturer's specifications. […] Hydrolysis of AMC-conjugated peptides was monitored on a Hitachi model F4500 fluorometer (excitation=370 nm, emission=432 nm) over the first 2 minutes of the reaction. Ki* values were determined from plots of fractional rate versus inhibitor concentration, which were fit by nonlinear regression analysis (Enzifitter™ by Bio soft, Cambridge UK) as described (44). Ki values were obtained by correction for the effect of substrate as described (44).

[4] = target: T6, human neutrophil proteinase 3 (Homo sapiens, UniProt P24158); assay: Determination of equilibrium dissociation constants, proteinase 3; type: biochemical
T6 construct: purchased Athens Research and Technology, Inc. (Athens, Ga.)
T6 sequence (P24158 28-256): T4 sequence (P24158 28-256)
Experimental: as §1

Bovine chymotrypsin = target: T7, Bovine chymotrypsin (Bos taurus, UniProt P00766); assay: Chymotrypsin assay to monitor protein folding; type: biochemical
T7 construct: purchased Sigma (St. Louis, Mo.)
Experimental: To identify the properly folded form from reverse phase purification, the inhibition of chymotrypsin was measured. Chymotrypsin (20 nM) was incubated with refolded BTL.009 reverse phase fractions (0.04 absorbance units at 280 nm) in 100 μl of 50 MM Hepes (pH 7.5), 0.15 M NaCl, 2.0 mM CaCl2, and 0.01% Triton X-100 (buffer A) at 37° C. After 30 minutes, Suc-AAPF-pNa (100 μM final concentration) was added, after which the residual enzymatic formation of pNa was monitored at 410 nm.

trypsin [5] = assay: Inhibitory activity of BTL.009 towards trypsin / trypsin-like proteinases; type: biochemical
[6] = target: T8, human neutrophil elastase (Homo sapiens, UniProt P08246); assay: Determination of equilibrium dissociation constants, neutrophil elastase; type: biochemical
T8 construct: purchased Athens Research and Technology, Inc. (Athens, Ga.)
T8 sequence (P08246 30-267): T1 sequence (P08246 30-267)
Experimental: as §1

plasma kallikrein = plasma kallikrein (Homo sapiens, UniProt P03952); conditions: cited from earlier work
plasma kallikrein, sequence (P03952 20-638, species assumed): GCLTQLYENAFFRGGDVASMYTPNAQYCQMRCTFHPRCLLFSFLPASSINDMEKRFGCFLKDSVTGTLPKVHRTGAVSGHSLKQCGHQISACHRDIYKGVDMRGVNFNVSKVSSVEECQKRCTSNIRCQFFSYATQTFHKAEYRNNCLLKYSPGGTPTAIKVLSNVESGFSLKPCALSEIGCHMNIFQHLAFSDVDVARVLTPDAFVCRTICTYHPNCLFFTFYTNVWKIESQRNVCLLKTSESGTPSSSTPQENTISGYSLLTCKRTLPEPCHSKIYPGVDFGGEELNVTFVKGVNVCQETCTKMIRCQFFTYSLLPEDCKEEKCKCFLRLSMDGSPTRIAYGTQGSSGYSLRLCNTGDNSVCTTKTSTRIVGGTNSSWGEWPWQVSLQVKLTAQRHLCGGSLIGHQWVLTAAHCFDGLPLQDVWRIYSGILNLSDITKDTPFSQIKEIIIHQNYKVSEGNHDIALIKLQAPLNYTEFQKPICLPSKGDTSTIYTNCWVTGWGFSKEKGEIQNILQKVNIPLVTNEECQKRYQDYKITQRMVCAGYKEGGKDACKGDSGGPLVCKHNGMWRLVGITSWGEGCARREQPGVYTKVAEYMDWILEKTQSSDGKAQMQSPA

[7] = read-out: Ki, leukocyte elastase

Substance: single mutant hPSTI variant: hPSTI with P1 residue lysine substituted with leucine (DSLGREAKCYNELNGCTLIYDPVCGTDGNTYPNECVLCFENRKRQTSILIQKSGPC; UniProt P00995 24-79, looked up, variant K18L)
- Ki (leukocyte elastase; [7]): 0.025 nM
- Ki (chymotrypsin): 8 nM
- inhibition of trypsin, in words (trypsin [1]): inactive

Substance: Thrombospondin 1: inactivates cathepsin G by binding near the enzyme's active site
- inhibition of cathepsin G, in words (cathepsin G): inactivates cathepsin G
- cathepsin G-mediated platelet aggregation (platelets): blocked

Substance: TFPI: Tissue factor pathway inhibitor, another member of the Kunitz family
- Ki (cathepsin G): 100 to 200 nM
- Ki (leukocyte elastase; [7]): 400 nM
- Ki (chymotrypsin): 0.75 nM

Substance: alpha-2-macroglobulin: member of the serpin proteinase inhibitor family (as stated)
- inhibition of proteinase 3, in words (proteinase 3): inhibit
- inhibition of cathepsin G, in words (cathepsin G): inhibit
- inhibition of leukocyte elastase, in words (leukocyte elastase): inhibit

Substance: aprotinin
- inhibition of leukocyte elastase, in words (leukocyte elastase): does not inhibit
- Ki (chymotrypsin): 1.3 nM
- Ki (trypsin [1]): 0.02 nM

Substance: elafin: member of the mucous proteinase inhibitor family (AQEPVKGPVSTKPGSCPIILIRCAMLNPPNRCLKDTDCPGIKKCCEGSCGMACFVPQ; Elafin; UniProt P19957 61-117, looked up)
- inhibition of proteinase 3, in words (proteinase 3): not proteinase 3
- inhibition of cathepsin G, in words (cathepsin G): not
- Ki (leukocyte elastase; read-out: Ki, elastase): 0.6 nM

Substance: alpha 1-proteinase inhibitor [Arg358]: alpha 1-proteinase inhibitor P1 variant
- inhibition of trypsin-like molecules such as thrombin, in words (thrombin): potent inhibitor
- inhibition of leukocyte elastase, in words (leukocyte elastase): not of leukocyte elastase

Substance: Alpha 1-proteinase inhibitor: a serpin family serine proteinase inhibitor; major serum inhibitor of elastase and cathepsin G
- inhibition of proteinase 3, in words (proteinase 3): inhibit
- inhibition of cathepsin G, in words (cathepsin G): potent inhibitor
- inhibition of cathepsin G, in words (cathepsin G; listed as Alpha-1-proteinase): inhibit
- inhibition of neutrophil-induced ECM solubilization [2]: completely or nearly completely inhibit

Substance: double mutant hPSTI variant: hPSTI with P1 lysine to leucine and P'1 isoleucine to glutamate (DSLGREAKCYNELNGCTLEYDPVCGTDGNTYPNECVLCFENRKRQTSILIQKSGPC; UniProt P00995 24-79, looked up, variant K18L I19E)
- Ki (leukocyte elastase; [7]): 0.037 nM
- Ki (chymotrypsin): 0.024 nM

Substance: hPSTI: a member of the Kazal serine proteinase family (DSLGREAKCYNELNGCTKIYDPVCGTDGNTYPNECVLCFENRKRQTSILIQKSGPC; UniProt P00995 24-79, looked up)
- inhibition of leukocyte elastase, in words (leukocyte elastase): completely inactive
- inhibition of chymotrypsin, in words (chymotrypsin): completely inactive
- inhibition of trypsin, in words (trypsin [1]): potent inhibitor

Substance: BTL.009: synthetic, refolded peptide corresponding to the EST-derived human Kunitz domain KQDVCEMPKETGPCLAYFLHWWYDKKDNTCSMFVYGGCQGNNNNFQSKANCLNTC (SEQ ID NO:1)
- inhibition of cathepsin G, in words [3]: weak inhibitor
- inhibition of proteinase 3, in words [4]: moderate inhibitor
- preference for chymotrypsin-like over trypsin-like proteases (Bovine chymotrypsin): inhibit preferentially chymotrypsin-like proteases over trypsin-like proteases
- inhibitory activity towards trypsin compared with neutrophil neutral serine proteinase (trypsin [5]): significantly greater inhibitory activity towards a neutral serine proteinase secreted by neutrophils than towards trypsin
- expected activity towards trypsin-like proteinases (trypsin [5]; expected, not tested): little activity towards all trypsin-like proteinases
- inhibition of leukocyte elastase, in words [6]: strong inhibitor; also recorded: elastase inhibitor

Substance: APP KD variant (T11D, P13H, M17A, 118H, S19P and F34Y): phage display / consensus mutant APP KD differing at 6 key residues; plasma kallikrein inhibitor
- Ki (plasma kallikrein): ~0.015 nM
- increase in binding affinity to plasma kallikrein compared to wild-type APP KD (plasma kallikrein): more than 10,000 fold

Substance: Tannin
- inhibition of leukocyte elastase, in words (leukocyte elastase): specifically inhibits leukocyte elastase in an irreversible manner
